This note sets out measurements from patent US20230183354A1 (IMMIOS HOLDING B V, published 2023).

For orientation: EC50 (read off the curve) means the concentration giving half of the maximal effect.

In assay [1] the target is human CD103 (integrin Alpha-E) / human integrin Beta-7 heterodimer on cells (human) (UniProt P38570). In words: flow cytometry competition on CD103+CD8+ T cells; pre-incubation with unlabeled IgG (f2); table n=1. For orientation: A flow cytometer gives signals particle by particle.
Assay [2] shares this target. Put plainly: flow cytometry competition on CD103+CD8+ T cells; pre-incubation with unlabeled MCA708 (f4); table n=1.
Assay [3] shares this target. In words: flow cytometry competition on CD103+CD8+ T cells; pre-incubation with unlabeled BERACT; table n=1.
Assay [4] has the same target. In words: flow cytometry competition on CD103+CD8+ T cells; pre-incubation with unlabeled 05A; table n=2.
Assay [5] shares this target. Put plainly: flow cytometry, tumor digest OC433, CD3 positive cells; Control panel Q3 2,12.
Assay [6] shares this target. In words: flow cytometry competition on CD103+CD8+ T cells; pre-incubation with unlabeled 02A; table n=1.
Assay [7] shares this target. Put plainly: flow cytometry competition on CD103+CD8+ T cells; pre-incubation with unlabeled 03A; table n=1.
For assay [8] the target is unchanged. In words: flow cytometry competition on CD103+CD8+ T cells; pre-incubation with unlabeled 07A; table n=1.
Assay [9] has the same target. In words: flow cytometry competition on CD103+CD8+ T cells; pre-incubation with unlabeled BERACT; table n=2.
The target is the same in assay [10]. In words: flow cytometry competition on CD103+CD8+ T cells; pre-incubation with unlabeled 06A; table n=2.
For assay [11] the target is unchanged. In words: flow cytometry competition on CD103+CD8+ T cells; pre-incubation with unlabeled 02A; table n=2.
The target is the same in assay [12]. Put plainly: flow cytometry competition on CD103+CD8+ T cells; pre-incubation with unlabeled MCA708 (f4); table n=2.
The target is the same in assay [13]. Put plainly: flow cytometry competition on CD103+CD8+ T cells; pre-incubation with unlabeled 01A; table n=1.
The target is the same in assay [14]. In words: flow cytometry competition on CD103+CD8+ T cells; pre-incubation with unlabeled 01A; table n=2.
For assay [15] the target is unchanged. In words: flow cytometry competition on CD103+CD8+ T cells; pre-incubation with unlabeled 07A; table n=2.
The target is the same in assay [16]. In words: flow cytometry competition on CD103+CD8+ T cells; pre-incubation with unlabeled 03A; table n=2.
Assay [17] shares this target. Put plainly: flow cytometry competition on CD103+CD8+ T cells; pre-incubation with unlabeled IgG (f2); table n=2.
Assay [18] has the same target. In words: flow cytometry, tumor digest OC433, CD3 positive cells; Control panel Q2 0,53.
The target is the same in assay [19]. In words: flow cytometry competition on CD103+CD8+ T cells; pre-incubation with unlabeled 05A; table n=1.
For assay [20] the target is unchanged. Put plainly: flow cytometry competition on CD103+CD8+ T cells; pre-incubation with unlabeled 06A; table n=1.
The target is the same in assay [21]. Put plainly: flow cytometry, tumor digest OC433, non-labeled control Fab with secondary anti-Fab reagent (APC); secondary antibody alone Q2 4,65.
The target is the same in assay [22]. In words: flow cytometry, tumor digest OC433, non-labeled control Fab with secondary anti-Fab reagent (APC); secondary antibody alone Q3 2,44.
Assay [23] has the same target. In words: flow cytometry, tumor digest OC433, AF647-conjugated control Fab, direct read-out.
Assay [24] deals with T1, human CD103 (integrin Alpha-E) / human integrin Beta-7 heterodimer on cells (human, UniProt P38570 19-1179; P26010 20-798).
T1 construct: The same id is used for native CD103 on human CD103+CD8+ T cells (tumor digests, TGF-beta induced T cells); the assay field tells which cells; also called hCD103/hBeta7; CHO.K1-hCD103/hBeta7
In words: cell ELISA on CHO.K1-humanCD103/beta7 cells, abs 450-610. (In general: ELISA stands for enzyme-linked immunosorbent assay.)

For the next assay, the target named is T2, murine CD103 (mouse, UniProt Q60677 20-1167).
T2 construct: whole, on cells; also called murine CD103+ T cells; mouse CD103
T2 sequence (looked up): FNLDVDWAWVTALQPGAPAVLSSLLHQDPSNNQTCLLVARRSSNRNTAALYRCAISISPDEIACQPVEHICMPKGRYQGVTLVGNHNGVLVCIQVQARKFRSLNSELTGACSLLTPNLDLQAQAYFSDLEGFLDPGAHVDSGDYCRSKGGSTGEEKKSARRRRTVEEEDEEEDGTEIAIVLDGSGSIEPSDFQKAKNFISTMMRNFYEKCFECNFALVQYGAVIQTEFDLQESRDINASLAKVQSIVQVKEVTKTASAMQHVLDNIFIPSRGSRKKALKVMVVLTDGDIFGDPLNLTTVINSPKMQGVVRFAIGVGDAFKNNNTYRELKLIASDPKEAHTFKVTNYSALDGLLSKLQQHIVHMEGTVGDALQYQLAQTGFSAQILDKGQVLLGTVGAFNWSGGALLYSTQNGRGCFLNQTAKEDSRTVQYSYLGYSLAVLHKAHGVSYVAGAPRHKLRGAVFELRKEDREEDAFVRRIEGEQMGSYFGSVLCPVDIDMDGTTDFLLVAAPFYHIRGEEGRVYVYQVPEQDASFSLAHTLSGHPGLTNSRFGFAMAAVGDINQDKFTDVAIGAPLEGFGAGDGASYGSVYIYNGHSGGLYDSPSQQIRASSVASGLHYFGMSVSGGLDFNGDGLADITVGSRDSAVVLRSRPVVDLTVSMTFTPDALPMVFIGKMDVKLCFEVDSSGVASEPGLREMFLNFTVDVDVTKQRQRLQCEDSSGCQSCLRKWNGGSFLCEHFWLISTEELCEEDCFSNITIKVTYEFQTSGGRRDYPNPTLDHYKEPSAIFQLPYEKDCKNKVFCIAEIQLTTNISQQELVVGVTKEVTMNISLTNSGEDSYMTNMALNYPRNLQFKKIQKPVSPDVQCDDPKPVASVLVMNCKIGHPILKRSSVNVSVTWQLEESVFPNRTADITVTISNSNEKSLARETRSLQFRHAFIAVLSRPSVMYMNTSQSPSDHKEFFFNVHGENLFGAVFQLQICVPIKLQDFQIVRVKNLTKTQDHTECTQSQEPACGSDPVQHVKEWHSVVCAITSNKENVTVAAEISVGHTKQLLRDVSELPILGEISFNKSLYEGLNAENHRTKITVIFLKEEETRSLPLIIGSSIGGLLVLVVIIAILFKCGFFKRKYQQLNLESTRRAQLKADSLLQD
Put plainly: flow cytometry on mouse spleen and thymus cells. As for the experimental part: Additional aliquots were stained with relevant isotype controls or as fluorescence minus one controls (“FMO” controls are cells stained with all the fluorophores minus one fluorophore; the relevant isotype controls contain either a directly labeled unspecific isotype antibody or an unspecific isotype antibody combined with secondary detection reagent). Percentage binding of fluorescently labeled mAbs was determined using flow cytometry. Maximum binding was set at 100%. […] Data analysis was performed with FlowJo v10 (Tree Star) and surface receptor levels were expressed as mean fluorescent intensity (MFI).

The target in assay [25] is T3, human integrin Alpha-4 / human integrin Beta-7 heterodimer on CHO-K1 cells (human, UniProt P13612 34-1032; P26010 20-798).
T3 construct: Used as the control for reactivity with hBeta7; also called hAlpha4/hBeta7; CHO.K1-hAlpha4/hBeta7
In words: cell ELISA on CHO.K1-humanAlpha4/beta7 cells, abs 450-610.

For the molecule CD103 (Ber-ACT8) antibody (BD), the % binding of the fluorescently labeled mAb (IgG pre-incubation = 100) came out at 100% in assay [1]; 115% in [2]; 1.9% in [3]; 60.6% in assay [4]; 1.4% in [6]; 97% in assay [7]. Moreover, the % binding of the fluorescently labeled mAb (IgG pre-incubation = 100) in assay [8] is 27.2%; in assay [9] it was 3.5%; in [10], 103%; in assay [11] it was 2.9%; in assay [12], 109%; in assay [13], 0.9%. Further, the % binding of the fluorescently labeled mAb (IgG pre-incubation = 100) in assay [14] worked out at 2.3%; in assay [15], 29.2%; in [16] it was 101%; in assay [17] it was 100%; in assay [19] it was 50.9%; in assay [20] it was 96.6%. In assay [5], this molecule yielded a % of CD3 positive cells in Q3 (CD8- CD103+) of 7.75%. In [18], this molecule displayed a % of CD3 positive cells in Q2 (CD8+ CD103+) of 13.4%.
Consider hFab isotype, for which the % of cells in Q2 (CD8+ CD103+) in assay [21] worked out at 4.64%. The % of cells in Q3 (CD8- CD103+) in assay [22] worked out at 3.71%.
With Alexa647.mFab control, in assay [23], the % of cells in Q2 (CD8+ CD103+) was 2.58% and the % of cells in Q3 (CD8- CD103+) was determined as 1.29%.

B1: hCD103.02A (antibody, V domains shown)
VH: EVQLQESGPSLVKPSQTLSLTCSVTGDSITSGYWNWIRKFPGNKLEYMGYITYSGSTYYNPSLKSRISITRDTSKNQYYLQFNSVTTEDTATYYCARGYYGSDAMDYWGQGTSVTVSS
VL: DIVMTQSHKFMSTSVGDRVSITCKASQDVSTAVAWYQQKPGQSPKLLIYSASYRYTGVPDRFTGSGSGTDFTFTISSVQAEDLAVYYCQQHYSPPWTFGGGTKLEIK
notes: also called clone 02A
In the case of B1, in assay [24], the “EC50 (read off the curve)” value is ~10 ng/mL. In addition, the binding result (with murine CD103; in [25]) was “no binding” in each case.
